Measurements taken from patent US8329409B2, “Methods, kits, and antibodies for detecting parathyroid hormone” (Scantibodies Laboratory, Inc., priority 1999, dated 2012).
Where “and” joins values, the source holds several entries; their conditions need not be identical. Equal entries are not always repeated. Entries after “also recorded” stand apart in the source; their conditions may differ.

Tests used:
PTX rats = experiment: Calcemic response in parathyroidectomized (PTX) rats; assay type: in vivo, Sprague-Dawley rats
Procedure: Calcemic response. Normal female Sprague-Dawley rats weighing 225 to 250 g (Harlan, Indianapolis, Ind., USA) were parathyroidectomized (PTX) and fed a 0.02% calcium diet. Rats with a plasma calcium below 7.0 mg/dL after overnight fasting were included in the study. A 20 μg dose of hPTH 1-84 or 7-84 was given intraperitoneally to PTX rats in four doses of 5 μg each at 30-minute intervals (0, 30, 60, and 90 minutes). For control studies, the rats received vehicle (saline solution) alone. Blood was drawn via the tail at 0, 60, 90, and 120 minutes. For competition experiments, rats received an injection of hPTH 7-84 10 minutes prior to each injection of hPTH 1-84. The molar ratio of hPTH 7-84/hPTH 1-84 was 1:1.
Total plasma calcium levels were determined using an atomic absorption spectrophotometer (model 1100B; Perkin Elmer, Norwalk, Conn., USA). Plasma phosphorus levels were determined using an autoanalyzer (COBAS MIRA Plus; Roche, Newark, N.J., USA).

ROS/17.2 cells = experiment: cAMP production in osteoblastic cell line ROS/17.2; assay type: cell-based, rat; settings: for effect on cAMP production: 10^-11 to 10^-8 mol/L, no-effect statement at 10^-8 mol/L
Procedure: Osteoblastic cell line. To compare the biological effects of the two peptides (hPTH 1-84 and 7-84), intracellular cAMP production was measured in the rate osteosarcoma cell line ROS/17.2, which has an osteoblastic phenotype and is known to increase cAMP production in response to PTH. Cells were cultured in Ham's F12 media containing 10% fetal bovine serum. Cells were plated out in 12-well plates at a density of 30,000 cells per well and grown to confluence. Cells were washed three times with KHMS buffer at 37° C. (KCI 4.0 mmol/L, CaCl2 1.25 mmol/L, MgSO4 1.25 mmol/L, KH2PO4 1.2 mmol/L, HEPES 10 mmol/L, NaCl 100 mmol/L, NaHCO3 37 mmol/L, and glucose 10 mmol/L, pH 7.5). cAMP production was measured using 500 μL of KHMS buffer (37°) containing isobutyl-1 methylxantine (IBMX) 1.0 mmol/L and various concentrations (10^−11 to 10^−8 mol/L) of hPTH 1-84 or hPTH 7-84. After a five-minute incubation, 100 μL of 1.8 mol/L pechloric acid were added. After an additional five-minute incubation at room temperature, 100 μL of 3 mol/KHCO3 were added to neutralize the acid. Samples were centrifuged at 3000 rpm for 15 minutes, and the supernatants were assayed for cAMP [26].

Sprague-Dawley rats = experiment: Phosphaturic response (clearance studies) in rats; assay type: in vivo
Procedure: Phosphaturic response. Normal female Sprague-Dawley rats weighing 225 to 250 g were prepared for clearance studies under light anesthesia. Polyethylene catheters (PE50) were placed in the femoeral artery for the collection of blood and measurement of blood pressure (Blood Pressure Analyzer; Micro-Medic, Inc., Louisville, Ky., USA), in the femoral vein for infusion and in the bladder for the collection of urine. Rats were placed in Plexiglas® holders and allowed to recover from the effect of the anesthetic for one hour. A priming dose (0.6 mL) of chemical inulin in saline was administered over a period of three minutes to achieve a plasma inulin level between […]. A solution of saline containing inulin to maintain this level and calcium gluconate to deliver 0.5 mg. Calcium was infused at the rate of 0.03 mL/min. After equilibration, a total of four 30-minute urine collections was obtained.
To assess the effect of hPTH 1-84 on phosphate excretion, urine was collected during two control periods, after which rats received a priming bolus of 1.8 μg of hPTH 1-84 followed by a sustained infusion that delivered a total of 8.2 μg of I-PTH. After an equilibration period of 20 minutes, two 30-minute urine collections were obtained. […]
Blood samples and blood pressure measurements were recorded at the beginning and end of the baseline period, at the beginning of the PTH infusion period, and at the end of the study. The concentration of inulin in plasma and urine was determined by the method of Fuhr, Kaczmarczyk, and Kruttgen, Klin Wochenschr, 33:729-730 (1955). The estimation of the glomerular filtration rate (GFR) by inulin clearance and the calculation of the fractional urinary excretion rate of phosphorus (FEP04) were performed in the standard fashion. Blood samples were centrifuged, and plasma phosphorus and calcium concentrations were measured.

[1] = test system: Whole PTH assay (goat antibodies to PTH 39-84 and to the first six amino acids of human PTH); experiment: Whole PTH IRMA assay, recognition of hPTH 1-84 vs hPTH 7-84; assay type: binding; settings: hPTH 7-84 at a concentration as high as 10,000 pg/mL
Procedure: Another method would be to couple the initial wPTH sequence antibody to colloidal solid supports, such as latex particles. More specifically, one can create a signal antibody by iodinating 50 micrograms of affinity purified goat anti-(1-6) PTH antibody (Scantibodies Laboratory, Inc., Santee Calif., U.S.A.) by oxidation with chloramine T, incubation for 25 seconds at room temperature with 1 millicurie of 125-1 radioisotope and reduction with sodium metabisulfate. […] The fractions collected from the desalting column are measured in a gamma counter and those fractions representing the 125-1-goat anti-(1-6) PTH antibody are pooled and diluted to approximately 300,000 D PM (disintegrations per minute) per 100 microliters. […]
To conduct a whole PTH assay of a sample, 200 microliter samples of human serum are added to the solid phase antibody coated tubes. […] Radioactivity on the solid phase, which amount corresponds to the quantity of wPTH present, is measured using a gamma counter. The radioactivity data for the samples is processed by conventional analysis with use of the results from standards and controls and computer software in order that the concentration of whole PTH in the samples may be ascertained. […]

Nichols Intact PTH assay = experiment: Nichols Intact (I-Nichols) PTH assay, recognition of hPTH 1-84 vs hPTH 7-84; assay type: binding; settings: compared with hPTH 1-84
From the text: The present whole IRMA assay was compared to a conventional intact PTH or I-PTH immunoassay, the Allegro Nichols Intact-PTH assay, (which is commercially available and made by Nichols Institute Diagnostics of San Juan Capistrano, Calif., U.S.A.), in both PTH normal persons and those suffering from chronic uremia. This I-PTH immunoassay, detects both PTH7-84 and wPTH (see FIG. 10).
This new Whole PTH two-site assay (Scantibodies Laboratories, Santee, Calif., USA) first employees and antibody that recognizes the 39-84 region of the PTH molecule. This antibody, produced in a goat and affinity purified, is present in relative excess and is immobilized onto polystyrene-coated tubes. The second antibody, also developed in a goat, was also affinity purified and recognizes only the first six amino acids (1 to 6; Ser-Val-Ser-Glu-Ile-Gln) of the human PTH molecule (FIG. 1). This anti-hPTH assay uses synthetic human PTH 1-84 as the standard, with a limit of detection of approximately 1 to 2 pg/mL. Normal values range from 5 to 35 pg/mL. […] The Whole PTH assay was compared with the Intact PTH assay purchases from the Nichols Institute (I-Nichols, San Jan Capistrano, Calif., USA). Synthetic human PTH 1-84 and 7-84 were purchased from Bachem (Torrance, Calif. USA). To assess circulating levels of hPTH 1-84 and non-(1-84) PTH, heparinized blood samples were obtained before dialysis from 28 patients who had been maintained on chronic hemodialysis for 1.2 to 7.5 years and from 14 renal transplant patients (1 to 6 years).

Row | Molecule | decrease in plasma calcium (PTX rats; PTX rats fed a 0.02% calcium diet, 20 μg intraperitoneally in four doses of 5 μg, N=5, P<0.05) [mg/dL] | decrease of the calcemic response induced by hPTH 1-84 alone (PTX rats; hPTH 7-84 given with hPTH 1-84 in a 1:1 molar ratio, PTX rats, N=6, P<0.001) [%] | effect on cAMP production (ROS/17.2 cells) | decrease of the increase in FEP04 (phosphaturia) induced by hPTH 1-84 (Sprague-Dawley rats; co-administration of hPTH 7-84 with hPTH 1-84 (molar ratio 4:1)) [%] | glomerular filtration rate (GFR), treatment period (Sprague-Dawley rats; hPTH 7-84 given simultaneously with hPTH 1-84 (molar ratio 4:1), increased from 2.1±0.1, N=8, P<0.05) [mL/min] | detection by the Whole PTH assay [1] | recognition by the Nichols Intact PTH assay (Nichols Intact PTH assay) | recognition by the Nichols Intact PTH assay (Nichols Intact PTH assay; listed as 7-84) | recognition by the Nichols Intact PTH assay (Nichols Intact PTH assay; listed as PTH7-84) | increase in plasma calcium (PTX rats; PTX rats fed a 0.02% calcium diet, 20 μg intraperitoneally in four doses of 5 μg, N=9, P<0.001) [mg/dL] | intracellular cAMP after treatment (ROS/17.2 cells; 10^-8 mol/L peptide, five-minute incubation, increased from 18.1±1.25 nmol/well, N=6) | glomerular filtration rate (GFR), treatment period (Sprague-Dawley rats; rats infused with hPTH 1-84 alone, control period 1.8±0.3, N=10) [mL/min] | fractional excretion of phosphate (FEP04), treatment period (Sprague-Dawley rats; rats infused with hPTH 1-84 alone, increased from 11.9±2.4, N=10, P<0.001) [%]
1 | hPTH 7-84: Synthetic human PTH 7-84 purchased from Bachem; large non-(1-84) PTH fragment, PTH antagonist (PIN) (peptide) peptide: LMHNLGKHLNSMERVEWLRKKLQDVHNFVALGAPLAPRDAGSQRPRKKEDNVLVESHEKSLGEADKADVNVLTKAKSQ | 0.30 ± 0.08 | 94 | no effect | 50.2 | 2.6 ± 0.2 | undetectable | does not differentiate | did not discriminate | detects |  |  |  | 
2 | hPTH 1-84: Synthetic human PTH 1-84 purchased from Bachem; complete 84 amino acid human parathyroid hormone (SEQ ID NO: 1) (peptide) SVSEIQLMHNLGKHLNSMERVEWLRKKLQDVHNFVALGAPLAPRDAGSQRPRKKEDNVLVESHEKSLGEADKADVNVLTKAKSQ |  |  | increased cAMP production in a does-dependent manner; also recorded: increased cAMP production in a dose-dependent manner |  |  | detected with a high degree of sensitivity |  |  |  | 0.65 ± 0.10 | 738±4.13 nmol/well and 738±4.1 nmol/well | 1.8 ± 0.1 | 27.7±2.4
